From patent US20080148430

B1: AtMPK3 (protein)
chain: MNTGGGQYTDFPAVETHGGQFISYDIFGSLFEITSKYRPPIIPIGRGAYGIVCSVLDTETNELVAMKKIANAFDNHMDAKRTLREIKLLRHLDHENIIAIRDVVPPPLRRQFSDVYISTELMDTDLHQIIRSNQSLSEEHCQYFLYQLLRGLKYIHSANIIHRDLKPSNLLLNANCDLKICDFGLARPTSENDFMTEYVVTRWYRAPELLLNSSDYTAAIDVWSVGCIFMELMNRKPLFPGKDHVHQMRLLTELLGTPTESDLGFTHNEDAKRYIRQLPNFPRQPLAKLFSHVNPMAIDLVDRMLTFDPNRRITVEQALNHQYLAKLHDPNDEPICQKPFSFEFEQQPLDEEQIKEMIYQEAIALNPTYG
B2: AtMPK6 (protein)
chain: MDGGSGQPAADTEMTEAPGGFPAAAPSPQMPGIENIPATLSHGGRFIQYNIFGNIFEVTAKYKPPIMPIGKGAYGIVCSAMNSETNESVAIKKIANAFDNKIDAKRTLREIKLLRHMDHENIVAIRDIIPPPLRNAFNDVYIAYELMDTDLHQIIRSNQALSEEHCQYFLYQILRGLKYIHSANVLHRDLKPSNLLLNANCDLKICDFGLARVTSESDFMTEYVVTRWYRAPELLLNSSDYTAAIDVWSVGCIFMELMDRKPLFPGRDHVHQLRLLMELIGTPSEEELEFLNENAKRYIRQLPPYPRQSITDKFPTVHPLAIDLIEKMLTFDPRRRITVLDALAHPYLNSLHDISDEPECTIPFNFDFENHALSEEQMKELIYREALAFNPEYQQ

What was measured:
AtPhos32 (At5g54430) = target: T1, AtPhos32 (At5g54430)
T1 chain: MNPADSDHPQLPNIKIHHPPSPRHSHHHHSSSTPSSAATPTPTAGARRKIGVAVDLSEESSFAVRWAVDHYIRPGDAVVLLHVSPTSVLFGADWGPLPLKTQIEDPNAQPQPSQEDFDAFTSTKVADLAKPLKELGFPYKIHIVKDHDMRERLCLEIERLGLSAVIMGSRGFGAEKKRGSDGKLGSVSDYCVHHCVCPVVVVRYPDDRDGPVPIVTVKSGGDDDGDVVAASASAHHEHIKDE

AtPhos34 (At4g27320) = target: T2, AtPhos34 (At4g27320)
T2 chain: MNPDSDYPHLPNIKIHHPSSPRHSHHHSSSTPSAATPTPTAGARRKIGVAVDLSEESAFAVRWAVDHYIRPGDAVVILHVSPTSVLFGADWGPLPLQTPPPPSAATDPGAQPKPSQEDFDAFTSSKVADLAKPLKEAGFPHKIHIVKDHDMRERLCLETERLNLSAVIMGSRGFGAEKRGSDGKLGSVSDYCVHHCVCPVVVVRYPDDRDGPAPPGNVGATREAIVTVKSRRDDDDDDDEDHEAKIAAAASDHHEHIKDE

[1] = target: T3, GST fusion containing the first 46 amino acids of Phos32
T3 chain: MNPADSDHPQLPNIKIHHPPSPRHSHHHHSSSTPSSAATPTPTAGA

[2] = target: T4, Myelin Basic Protein (MBP) Bovine P02687
T4 chain: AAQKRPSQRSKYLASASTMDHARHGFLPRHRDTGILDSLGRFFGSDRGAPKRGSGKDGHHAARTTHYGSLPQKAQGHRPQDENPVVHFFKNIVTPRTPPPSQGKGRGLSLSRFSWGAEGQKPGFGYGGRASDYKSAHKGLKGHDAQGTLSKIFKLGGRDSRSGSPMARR

[3] = target: T5, Phos32 with serine S21 mutated to alanine
T5 chain: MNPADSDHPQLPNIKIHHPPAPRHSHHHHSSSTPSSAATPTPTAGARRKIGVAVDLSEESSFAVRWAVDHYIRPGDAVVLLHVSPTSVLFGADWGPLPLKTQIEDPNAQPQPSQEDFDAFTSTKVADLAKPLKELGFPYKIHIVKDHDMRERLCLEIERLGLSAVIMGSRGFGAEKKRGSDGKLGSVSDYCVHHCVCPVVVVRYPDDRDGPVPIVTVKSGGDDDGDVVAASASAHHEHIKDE

[4] = target: T6, Phos32 with serine S21 mutated to aspartic acid
T6 chain: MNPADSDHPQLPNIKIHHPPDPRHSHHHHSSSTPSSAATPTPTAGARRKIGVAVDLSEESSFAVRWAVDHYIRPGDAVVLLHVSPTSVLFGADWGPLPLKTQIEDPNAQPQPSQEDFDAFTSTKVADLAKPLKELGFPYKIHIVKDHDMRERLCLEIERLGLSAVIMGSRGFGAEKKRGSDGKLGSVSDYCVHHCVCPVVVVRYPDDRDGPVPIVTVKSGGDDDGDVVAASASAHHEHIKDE

Row | Protein | in-solution kinase assays with 32P-gammaATP (AtPhos32 (At5g54430)) | level of phosphorylation in an in vitro kinase assay (AtPhos32 (At5g54430)) | in-solution kinase assays with 32P-gammaATP (AtPhos34 (At4g27320)) | in vitro kinase assay [1] | level of phosphorylation in an in vitro kinase assay [2] | in vitro kinase assay [3] | in vitro kinase assay [4]
1 | B1 | we found that these proteins are excellent MAP kinase substrates | Phos32 is at least as good if not a better substrate than MBP for this MAP Kinase | we found that these proteins are excellent MAP kinase substrates | the first 46 amino acids of Phos32 protein are sufficient for MAP kinase recognition and phosphorylation | we used 2 µg of MBP in an in vitro kinase assay with AtMPK3 and compared the level of phosphorylation | mutation of this residue to alanine or aspartic acid abolishes phosphorylation by MAPKs | mutation of this residue to alanine or aspartic acid abolishes phosphorylation by MAPKs
2 | B2 | we found that these proteins are excellent MAP kinase substrates |  | we found that these proteins are excellent MAP kinase substrates | the first 46 amino acids of Phos32 protein are sufficient for MAP kinase recognition and phosphorylation |  | mutation of this residue to alanine or aspartic acid abolishes phosphorylation by MAPKs | mutation of this residue to alanine or aspartic acid abolishes phosphorylation by MAPKs
